The results in this text go back to patent US8318163 (Genentech, dated 2012).

The Kd is the equilibrium constant for the complex coming apart. Low readings indicate a tighter complex, high ones a looser complex.

For one series, the target named is T1, human Nrp2 b1b2 (human, UniProt O60462 275-595).
T1 construct: range 275-595; Range is that of the crystallization construct; also called Nrp2 b1b2 domains
T1 sequence (looked up): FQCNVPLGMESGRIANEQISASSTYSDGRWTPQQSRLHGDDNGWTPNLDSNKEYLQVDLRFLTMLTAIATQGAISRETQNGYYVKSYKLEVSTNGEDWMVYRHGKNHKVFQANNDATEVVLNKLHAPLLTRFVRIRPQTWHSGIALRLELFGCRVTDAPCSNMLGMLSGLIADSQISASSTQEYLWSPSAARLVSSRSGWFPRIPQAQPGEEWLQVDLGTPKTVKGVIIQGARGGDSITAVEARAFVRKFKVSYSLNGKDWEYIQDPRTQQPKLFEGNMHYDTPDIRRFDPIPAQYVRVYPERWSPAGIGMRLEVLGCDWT
In words: BIAcore (SPR), 500 nM Nrp protein injected over immobilized IgG at 25 C. The source says: (§1) Figure 11: FIG. 11—Analysis of anti-Nrp antibody binding kinetics. BIAcore kinetic analysis of anti-panNrp[4] antibody.
Background: Surface plasmon resonance follows binding to a sensor surface in real time, without labels.

Series [1] addresses T2, human Nrp1 protein (BIAcore analyte) (human, UniProt O14786 22-586, limits assumed).
T2 construct: no residue range for such an Nrp1 construct is printed; also called neuropilin-1
T2 sequence (looked up): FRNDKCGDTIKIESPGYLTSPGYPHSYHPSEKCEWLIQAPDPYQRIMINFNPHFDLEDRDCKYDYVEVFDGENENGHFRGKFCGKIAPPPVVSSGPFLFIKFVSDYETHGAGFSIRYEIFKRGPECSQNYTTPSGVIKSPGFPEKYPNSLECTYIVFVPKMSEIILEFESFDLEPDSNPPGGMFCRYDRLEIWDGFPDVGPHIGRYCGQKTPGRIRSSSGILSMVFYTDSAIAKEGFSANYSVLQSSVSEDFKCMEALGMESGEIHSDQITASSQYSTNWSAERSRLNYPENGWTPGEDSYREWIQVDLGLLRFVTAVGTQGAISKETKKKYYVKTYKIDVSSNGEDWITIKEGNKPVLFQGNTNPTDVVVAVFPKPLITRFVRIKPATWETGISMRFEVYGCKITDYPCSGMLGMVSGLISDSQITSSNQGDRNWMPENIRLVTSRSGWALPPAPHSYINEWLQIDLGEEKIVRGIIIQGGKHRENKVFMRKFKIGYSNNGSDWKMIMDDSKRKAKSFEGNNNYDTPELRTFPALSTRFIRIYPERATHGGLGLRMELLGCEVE
In words: BIAcore, IgG immobilized on the chip, human NRP protein injected, 25 C; Nrp1 (first of the two affinities).
Excerpt: as §1

The next series deals with T3, human Nrp2 a1a2b1b2 (human, UniProt O60462 21-595, N-glycosylated (two sites within the a2 domain seen in the monoclinic crystal form)).
T3 construct: range 1-595; The printed range begins at Met1 and so includes the native signal peptide, which is cleaved on secretion
T3 sequence: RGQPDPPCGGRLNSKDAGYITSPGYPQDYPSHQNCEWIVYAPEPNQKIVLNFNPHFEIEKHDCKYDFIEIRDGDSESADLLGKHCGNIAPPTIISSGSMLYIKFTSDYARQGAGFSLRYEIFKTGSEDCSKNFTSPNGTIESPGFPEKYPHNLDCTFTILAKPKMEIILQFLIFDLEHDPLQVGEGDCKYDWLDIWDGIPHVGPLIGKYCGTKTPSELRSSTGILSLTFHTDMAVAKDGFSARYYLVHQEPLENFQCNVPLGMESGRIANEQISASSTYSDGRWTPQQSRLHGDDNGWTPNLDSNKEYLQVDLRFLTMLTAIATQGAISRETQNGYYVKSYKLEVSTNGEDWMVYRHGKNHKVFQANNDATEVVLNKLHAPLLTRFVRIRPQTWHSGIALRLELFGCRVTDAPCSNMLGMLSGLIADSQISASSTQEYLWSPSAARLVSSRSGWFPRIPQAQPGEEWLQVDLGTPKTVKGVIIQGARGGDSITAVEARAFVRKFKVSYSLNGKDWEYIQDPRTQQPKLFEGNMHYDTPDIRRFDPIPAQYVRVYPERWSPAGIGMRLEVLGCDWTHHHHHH
Put plainly: BIAcore, IgG immobilized on the chip, human NRP protein injected, 25 C; Nrp2 (second of the two affinities).
Excerpt: as §1

Series [2] concerns the molecule itself. Put plainly: multi-angle light scattering, self-association.

B1: anti-panNrp^A antibody, clone YW68.11.26 (IgG) (antibody, V domains shown)
VH: EVQLVESGGGLVQPGGSLRLSCAASGFTISGYGIHWVRQAPGKGLEWVAYIYPDSGYTDYADSVKGRFTISADTSKNTAYLQMNSLRAEDTAVYYCAREDFRNRRRLWYVMDYWGQGT
VL: DIQMTQSPSSLSASVGDRVTITCRASQDVSTAVAWYQQKPGKAPKLLIYSASFLYSGVPSRFSGSGSGTDFTLTDSSLQPEDFATYYCQQAWAYLTTFGQGTKVEIKR
notes: Human IgG1 from a synthetic phage library; immobilized as IgG on the BIAcore chip
As for B1, in the series with human Nrp2 b1b2, the binding result is “no binding (tested: 500 nM)”. For the same molecule, the Kd in series [1] stood at 210 pM; in the series with human Nrp2 a1a2b1b2 it was 150 pM.

B2: human Nrp2 a2b1b2 (receptor, UniProt O60462 145-595, looked up)
chain: GSEDCSKNFTSPNGTIESPGFPEKYPHNLDCTFTILAKPKMEIILQFLIFDLEHDPLQVGEGDCKYDWLDIWDGIPHVGPLIGKYCGTKTPSELRSSTGILSLTFHTDMAVAKDGFSARYYLVHQEPLENFQCNVPLGMESGRIANEQISASSTYSDGRWTPQQSRLHGDDNGWTPNLDSNKEYLQVDLRFLTMLTAIATQGAISRETQNGYYVKSYKLEVSTNGEDWMVYRHGKNHKVFQANNDATEVVLNKLHAPLLTRFVRIRPQTWHSGIALRLELFGCRVTDAPCSNMLGMLSGLIADSQISASSTQEYLWSPSAARLVSSRSGWFPRIPQAQPGEEWLQVDLGTPKTVKGVIIQGARGGDSITAVEARAFVRKFKVSYSLNGKDWEYIQDPRTQQPKLFEGNMHYDTPDIRRFDPIPAQYVRVYPERWSPAGIGMRLEVLGCDWT
notes: range 145-595; Purified on Ni-NTA; the tag of this construct is not described
For B2, the binding result in series [2] was “no binding”.

B3: full-length human Nrp2-ECD (a1a2b1b2c) (receptor)
chain: RGQPDPPCGGRLNSKDAGYITSPGYPQDYPSHQNCEWIVYAPEPNQKIVLNFNPHFEIEKHDCKYDFIEIRDGDSESADLLGKHCGNIAPPTIISSGSMLYIKFTSDYARQGAGFSLRYEIFKTGSEDCSKNFTSPNGTIESPGFPEKYPHNLDCTFTILAKPKMEIILQFLIFDLEHDPLQVGEGDCKYDWLDIWDGIPHVGPLIGKYCGTKTPSELRSSTGILSLTFHTDMAVAKDGFSARYYLVHQEPLENFQCNVPLGMESGRIANEQISASSTYSDGRWTPQQSRLHGDDNGWTPNLDSNKEYLQVDLRFLTMLTAIATQGAISRETQNGYYVKSYKLEVSTNGEDWMVYRHGKNHKVFQANNDATEVVLNKLHAPLLTRFVRIRPQTWHSGIALRLELFGCRVTDAPCSNMLGMLSGLIADSQISASSTQEYLWSPSAARLVSSRSGWFPRIPQAQPGEEWLQVDLGTPKTVKGVIIQGARGGDSITAVEARAFVRKFKVSYSLNGKDWEYIQDPRTQQPKLFEGNMHYDTPDIRRFDPIPAQYVRVYPERWSPAGIGMRLEVLGCDWTDSKPTVETLGPTVKSEETTTPYPTEEEATECGENCSFEDDKDLQLPSGFNCNFDFLEEPCGWMYDHAKWLRTTWASSSSPNDRTFPDDRNFLRLQSDSQREGQYARLISPPVHLPRSPVCMEFQYQATGGRGVALQVVREASQESKLLWVIREDQGGEWKHGRIILPSYDMEYQIVFEGVIGKGRSGEIAIDDIRISTDVPLENCMEPISAFAGENFKVDIPEIHEREGYEDEIDDEYEVDWSNSSSATSGSGAPSTDKEKSWLYTLDPHHHHHH
notes: extracellular domain
For B3, in series [2], the binding result is “no binding”.
